According to article doi:10.1101/2023.01.26.525693:

Legend:
[1] = target: MDM2_(D.rerio) SWIB domain (zebra fish (Danio rerio)); test: stopped-flow spectroscopy
[2] = target: MDM2_(L.camtschaticum) SWIB domain (arctic lamprey (Lethenteron camtschaticum)); test: fluorescence polarisation
[3] = target: MDM2_(M.trossulus) SWIB domain (bay mussel (Mytilus trossulus)); test: fluorescence polarisation

| Substance | Kd [1] [nM] | further results |
| --- | --- | --- |
| p53TAD_(D.rerio)[14–27] (peptide) | 1900 |  |
| p53TAD_(D.rerio)^N26L (peptide) | 340 |  |
| p53TAD_(D.rerio)^insertT[18] (peptide) | 2300 |  |
| p53TAD_(L.camtschaticum) (peptide) |  | Kd [2]: 250 µM |
| p53TAD_(M.trossulus) (peptide) |  | Kd [3]: 15 µM |
| p73TAD_(D.rerio) (peptide) | 120 |  |
